Key:
[1] = target: SARS-COV-2 Wuhan WT Spike_del18 on VSV-delG pseudotyped particles (SARS-COV-2, UniProt P0DTC2 14-1255); experiment: cell-based or functional assay
[2] = target: T1, SARS-COV-2 RBD displayed on the surface of Saccharomyces cerevisiae cells (SARS-COV-2, UniProt P0DTC2 331-531); experiment: flow cytometry, yeast-displayed RBD
[3] = target: T1, SARS-COV-2 RBD displayed on the surface …; experiment: yeast cell ELISA (FIG. 27)
[4] = target: monomeric human Fc-fused SARS-COV-2_RBD-SD1 (SARS-COV-2, UniProt P0DTC2 319-591)

B1: VHH72_h1_S56A (VHH)
VHH: EVQLVESGGGLVQPGGSLRLSCAASGRTFSEYAMGWFRQAPGKEREFVATISWSGGATYYTDSVKGRFTISRDNAKNTVYLQMNSLRPEDTAVYYCAAAGLGTVVSEWDYDYDYWGQGTLVTVSS
[1]
  IC50 Mean VSV-dG-spike SARS-COV-2: 1.14 µg/mL

B2: VHH3.89 (VHH)
VHH: QVQLQESGGGLVQPGGSLRLSCAASGFTLDYYAIGWFREVPGKEREGLSRIDSSDGSTYYADSVKGRFTISRDNTKNIVYLQMNNLKPEDTAVYYCATDPIIQGRNWYWTGWGQGTQVTVSS
[2]
  binding result: binds

B3: KiH19 = VHH117/VHH83-10GS-KiH (bispecific antibody, V domains shown)
V domain 1: DVQLQESGGGLVQPGGSLRLSCAASGKAVSISDMGWYRQPPGKQRELVATITKTGSTNYADSAQGRFTISRDNTKSAVYLEMKSLKPEDTAVYYCNAWLPYGMGPDYYGMELWGKGTQVTVSS
V domain 2: DVQLQESGGGLVQPGDSLRLSCVLSGGVFTSYAMGWFRQAPGKEREFLAAITFNSDATYYADSVKGRFTISRDNAKNTAYLQMNSLKPEDTAVYSCAAGGNHYNPQYYHDYDKYDHWGQGTQVTVSS
[3]
  binding result: binds

B4: VHH3.117 (VHH)
VHH: QVQLQESGGGLVQPGGSLRLSCAASGKAVSISDMGWYRQPPGKQRELVATITKTGSTNYADSAQGRFTISRDNTKSAVYLEMKSLKPEDTAVYYCNAWLPYGMGPDYYGMELWGKGTQVTVSS
[4]
  Kd: 0.445 nM

From patent publication US20240228596A1 (VIB VZW, published 2024)
